# Like-named read-outs stand apart in the source and are kept apart here.
# Tests used:
# [1] = molecular target: CGRP receptor (CLR-RAMP1) (human) (UniProt Q16602)
# [2] = molecular target: AM1 receptor (CLR-RAMP2) (human) (UniProt Q16602)
# [3] = molecular target: AM2 receptor (CLR-RAMP3) (human) (UniProt Q16602)
# [4] = molecular target: CGRP receptor (CLR-RAMP1) (human) (UniProt Q16602); remark: listed apart in the source
# [5] = molecular target: AM1 receptor (CLR-RAMP2) (human) (UniProt Q16602); remark: listed apart in the source
# [6] = molecular target: AM2 receptor (CLR-RAMP3) (human) (UniProt Q16602); remark: listed apart in the source
# [7] = molecular target: CGRP receptor (CLR-RAMP1) (human) (UniProt Q16602); remark: listed apart in the source
# [8] = molecular target: AM1 receptor (CLR-RAMP2) (human) (UniProt Q16602); remark: listed apart in the source
# [9] = molecular target: AM2 receptor (CLR-RAMP3) (human) (UniProt Q16602); remark: listed apart in the source
# [10] = molecular target: calcitonin receptor (CTR) (human)
# [11] = molecular target: amylin1 receptor (CTR-RAMP1) (human) (UniProt O60894)
# Chain of amylin1 receptor (CTR-RAMP1) (human) (O60894 whole entry, looked up): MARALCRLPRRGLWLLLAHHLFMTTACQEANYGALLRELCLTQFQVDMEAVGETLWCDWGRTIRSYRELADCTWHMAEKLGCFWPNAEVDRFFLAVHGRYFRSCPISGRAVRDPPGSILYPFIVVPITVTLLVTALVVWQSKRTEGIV
# Chain of CGRP receptor (CLR-RAMP1) (human) (Q16602 23-461, chain 1 of 2): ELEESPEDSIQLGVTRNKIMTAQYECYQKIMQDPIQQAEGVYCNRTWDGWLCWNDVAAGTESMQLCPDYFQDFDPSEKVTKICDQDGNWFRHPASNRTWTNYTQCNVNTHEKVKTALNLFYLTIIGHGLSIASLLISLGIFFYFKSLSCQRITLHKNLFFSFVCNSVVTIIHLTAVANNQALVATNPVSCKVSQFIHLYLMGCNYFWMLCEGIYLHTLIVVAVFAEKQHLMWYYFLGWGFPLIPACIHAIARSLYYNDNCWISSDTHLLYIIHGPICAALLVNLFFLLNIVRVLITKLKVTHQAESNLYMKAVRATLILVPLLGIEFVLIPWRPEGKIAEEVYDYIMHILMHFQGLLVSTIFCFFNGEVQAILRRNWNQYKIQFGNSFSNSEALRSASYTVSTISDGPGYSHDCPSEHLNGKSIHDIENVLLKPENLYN
# Chain of CGRP receptor (CLR-RAMP1) (human) (O60894 27-148, chain 2 of 2, further chain): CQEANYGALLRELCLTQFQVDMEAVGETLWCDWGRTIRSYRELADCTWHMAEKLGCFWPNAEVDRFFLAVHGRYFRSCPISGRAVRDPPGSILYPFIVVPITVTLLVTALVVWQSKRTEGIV
# Chain of AM2 receptor (CLR-RAMP3) (human) (Q16602 23-461, chain 1 of 2): as the sequence (Q16602 23-461, chain 1 of 2) above
# Chain of AM2 receptor (CLR-RAMP3) (human) (O60896 24-148, chain 2 of 2, further chain): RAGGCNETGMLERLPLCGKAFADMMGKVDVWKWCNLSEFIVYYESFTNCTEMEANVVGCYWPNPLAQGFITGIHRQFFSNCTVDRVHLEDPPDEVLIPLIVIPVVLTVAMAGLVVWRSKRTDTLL
# Chain of AM1 receptor (CLR-RAMP2) (human) (Q16602 23-461, chain 1 of 2): as the sequence (Q16602 23-461, chain 1 of 2) above
# Chain of AM1 receptor (CLR-RAMP2) (human) (O60895 43-175, chain 2 of 2, further chain): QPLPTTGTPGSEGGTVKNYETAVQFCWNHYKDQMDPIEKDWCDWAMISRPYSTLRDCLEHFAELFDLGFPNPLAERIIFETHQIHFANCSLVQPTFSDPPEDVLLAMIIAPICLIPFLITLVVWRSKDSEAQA
# Chain of calcitonin receptor (CTR) (human) (P30988 25-474): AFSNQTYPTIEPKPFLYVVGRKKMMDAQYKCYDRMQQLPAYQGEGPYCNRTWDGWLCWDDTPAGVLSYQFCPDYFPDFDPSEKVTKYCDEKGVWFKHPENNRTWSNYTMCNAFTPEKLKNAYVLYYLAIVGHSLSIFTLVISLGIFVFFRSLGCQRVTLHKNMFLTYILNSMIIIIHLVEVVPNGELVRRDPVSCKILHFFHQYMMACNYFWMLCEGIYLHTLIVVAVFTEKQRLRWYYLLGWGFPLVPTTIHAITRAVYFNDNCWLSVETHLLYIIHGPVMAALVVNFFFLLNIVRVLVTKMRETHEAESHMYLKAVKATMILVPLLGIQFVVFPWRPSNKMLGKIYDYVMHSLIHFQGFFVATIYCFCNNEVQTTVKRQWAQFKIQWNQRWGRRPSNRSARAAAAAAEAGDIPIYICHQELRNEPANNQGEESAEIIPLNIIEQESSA
# Chain of βCGRP(1-37) (P10092 82-118): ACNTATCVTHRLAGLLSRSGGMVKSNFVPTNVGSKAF
molecule,measurement,setting,value
AM2(8-22)-AM(29-38)-AM2(34-47) (peptide),"pEC50 of cAMP signaling, end-point concentration-response (CAMYEL BRET, COS-7)",[1],8.09
same,"pEC50 of cAMP signaling, end-point concentration-response (CAMYEL BRET, COS-7)",[2],7.34
same,"pEC50 of cAMP signaling, end-point concentration-response (CAMYEL BRET, COS-7)",[3],8.72
AM2/IMD(1-47) (peptide),"pEC50 of cAMP signaling, end-point concentration-response (CAMYEL BRET, COS-7)",[4],7.81
same,"pEC50 of cAMP signaling, end-point concentration-response (CAMYEL BRET, COS-7)",[5],7.66
same,"pEC50 of cAMP signaling, end-point concentration-response (CAMYEL BRET, COS-7)",[6],8.9
AM2/IMD(8-47) (peptide),"pEC50 of cAMP signaling, end-point concentration-response (CAMYEL BRET, COS-7)",[7],9.17
same,"pEC50 of cAMP signaling, end-point concentration-response (CAMYEL BRET, COS-7)",[8],8.51
same,"pEC50 of cAMP signaling, end-point concentration-response (CAMYEL BRET, COS-7)",[9],9.27
same,"pEC50 of cAMP signaling, end-point concentration-response (CAMYEL BRET, COS-7)",[4],8.86
same,"pEC50 of cAMP signaling, end-point concentration-response (CAMYEL BRET, COS-7)",[5],8.24
same,"pEC50 of cAMP signaling, end-point concentration-response (CAMYEL BRET, COS-7)",[6],9.33
AM2/IMD(8-47) [R23K/R33K] (peptide),"pEC50 of cAMP signaling, end-point concentration-response (CAMYEL BRET, COS-7)",[7],8.22
same,"pEC50 of cAMP signaling, end-point concentration-response (CAMYEL BRET, COS-7)",[8],7.59
same,"pEC50 of cAMP signaling, end-point concentration-response (CAMYEL BRET, COS-7)",[9],8.74
AM2/IMD(8-47) [R23K] (peptide),"pEC50 of cAMP signaling, end-point concentration-response (CAMYEL BRET, COS-7)",[7],8.51
same,"pEC50 of cAMP signaling, end-point concentration-response (CAMYEL BRET, COS-7)",[8],7.62
same,"pEC50 of cAMP signaling, end-point concentration-response (CAMYEL BRET, COS-7)",[9],9
AM2/IMD(8-47) [R23Q/R33K] (peptide),"pEC50 of cAMP signaling, end-point concentration-response (CAMYEL BRET, COS-7)",[7],7.5
same,"pEC50 of cAMP signaling, end-point concentration-response (CAMYEL BRET, COS-7)",[8],6.9
same,"pEC50 of cAMP signaling, end-point concentration-response (CAMYEL BRET, COS-7)",[9],7.75
AM2/IMD(8-47) [R33K] (peptide),"pEC50 of cAMP signaling, end-point concentration-response (CAMYEL BRET, COS-7)",[7],8.54
same,"pEC50 of cAMP signaling, end-point concentration-response (CAMYEL BRET, COS-7)",[8],7.8
same,"pEC50 of cAMP signaling, end-point concentration-response (CAMYEL BRET, COS-7)",[9],9.01
AM2/IMD-53 (peptide),"pEC50 of cAMP signaling, end-point concentration-response (CAMYEL BRET, COS-7)",[4],8.36
same,"pEC50 of cAMP signaling, end-point concentration-response (CAMYEL BRET, COS-7)",[5],7.94
same,"pEC50 of cAMP signaling, end-point concentration-response (CAMYEL BRET, COS-7)",[6],8.84
AM(13-38)-AM2(23-33)-AM(39-52) (peptide),"pEC50 of cAMP signaling, end-point concentration-response (CAMYEL BRET, COS-7)",[1],8.08
same,"pEC50 of cAMP signaling, end-point concentration-response (CAMYEL BRET, COS-7)",[2],8.26
same,"pEC50 of cAMP signaling, end-point concentration-response (CAMYEL BRET, COS-7)",[3],8.42
AM(13-52) (peptide),"pEC50 of cAMP signaling, end-point concentration-response (CAMYEL BRET, COS-7)",[8],9.52
same,"pEC50 of cAMP signaling, end-point concentration-response (CAMYEL BRET, COS-7)",[9],9.48
same,"pEC50 of cAMP signaling, end-point concentration-response (CAMYEL BRET, COS-7)",[5],9.54
same,"pEC50 of cAMP signaling, end-point concentration-response (CAMYEL BRET, COS-7)",[6],9.63
βCGRP(1-37) (from UniProt P10092 82-118) (peptide),"pEC50 of cAMP signaling, end-point concentration-response (CAMYEL BRET, COS-7)",[10],7.79
KCNTATCATQRLANFLVRSSNNLGPVLPPTNVGSNTY [rat Amylin(1-37)],"pEC50 of cAMP signaling, end-point concentration-response (CAMYEL BRET, COS-7)",[10],7.63
same,"pEC50 of cAMP signaling, end-point concentration-response (CAMYEL BRET, COS-7)",[11],9.72

# Reference: publication PMC11102832
